Results from patent publication US20030148312A1, “Method for testing for allergic disease” (NATIONAL CENTER FOR CHILD HEALTH AND DEVELOPMENT, priority 2001, published 2003).

What was measured:
MAL = assay: Expression induction experiment with cytokines in cultured T cells derived from peripheral blood (MAL mRNA); type: cell-based, human; details: 0-48 h, IL-4 2 ng/ml, IL-12 2 ng/ml, IFN-γ 200 ng/ml, IFN-α 100 IU/ml
Method: Effects of various cytokines on the MAL expression level were examined. T cells were separated from the peripheral blood sample from an normal healthy subject using the method described in Example 6, and stimulated with the anti-CD3 antibody to induce the cell growth. That is, on a culture plate which was surface-treated with the anti-CD3 antibody, the separated T cells were cultured in a 5% FCS-containing RPMI1640 medium (1 mM sodium pyruvate, 2 mM L-glutamine, 10 U/ml penicillin, 100 μg/ml streptomycin, and 200 U/ml IL-2) at a density of 5×10^5 cells/ml for 5 days. Grown T cells were diluted with the same medium to a density of 5×10^5 cells/ml, and cultured on a non-surface treated plate for further 3 days. The resulting cells were washed with the medium without IL-2, suspended in the medium (without IL-2) supplemented with cytokine for the stimulation at a density of 1×10^6 cells/ml, and cultured under the stimulation for a predetermined period of time. Cells were then collected to prepare RNA. Cytokines used are shown below:
The same medium as that described in Example 3 was used. During the cultivation for 0˜48 h, mRNA for MAL was induced in the case of stimulation with IL-4. […] Induction of MAL expression with IL-4 may indicate the association of MAL with the action of IL-4 in allergic diseases. For example, MAL may act during the differentiation process of T cell into Th2, and also may associate with the production of Th2 cytokines, IL-4, IL-5, and IL-10.

MAL protein [1] = assay: Induction of MAL protein expression in Jurkat cell line (Western blotting of raft fraction); type: cell-based, human; details: Jurkat cells, IL-4 2 ng/ml, 32 hours, raft fractions 4, 5, 6
Method: Cell lysate was prepared from Jurkat cells that had been stimulated with IL-4 (2 ng/ml) for 32 hours, and subjected to sucrose density gradient centrifugation according to the method of Fernando Martin-Belmonte et al. (Fernando Martin-Belmonte, Rosa Puertollano, Jaime Millan, and Miguel A. Alonso. The MAL Proteolipid Is Necessary for the Overall Apical Delivery of Membrane Protein in the Polarized Epithelial Madin-Darby Canine Kidney and Fischer Rat Thyroid Cell Lines. Molecular Biology of the Cell 11, 2033-2045, June 2000) to separate the raft fraction (fractions 4, 5, and 6). Proteins in each fraction were separated by SDS polyacrylamide gel electrophoresis, and analyzed by Western blotting using antibody against MAL peptide or that against LAT (linker for activation of T cells).

MAL protein [2] = assay: Induction of MAL protein expression in human peripheral blood T-cells (Western blotting of raft fraction); type: cell-based; details: IL-4 2 ng/ml, 41 hours, fraction 4
Method: Human peripheral blood cells that had been cultured and propagated were similarly stimulated as in Example 7 with IL-4 (2 ng/ml) for 41 hours, and then the MAL protein expression in the raft fraction (fraction 4) was examined by Western blotting. As a result, the induction of the MAL protein expression by IL-4 was confirmed also in the raft of human peripheral blood T-cells (FIG. 8).

IFN-α
induction of mRNA for MAL (MAL): No such action was observed

B1: IFN-γ: cytokine used for stimulation of T cells (protein, UniProt P01579 24-161, looked up)
Interferon gamma: QDPYVKEAENLKKYFNAGHSDVADNGTLFLGILKNWKEESDRKIMQSQIVSFYFKLFKNFKDDQSIQKSVETIKEDMNVKFFNSNKKKRDDFEKLTNYSVTDLNVQRKAIHELIQVMAELSPAAKTGKRKRSQMLFRG
induction of mRNA for MAL (MAL): No such action was observed

B2: IL-4: cytokine used for stimulation of T cells (protein, UniProt P05112 25-153, looked up)
Interleukin-4: HKCDITLQEIIKTLNSLTEQKTLCTELTVTDIFAASKNTTEKETFCRAATVLRQFYSHHEKDTRCLGATAQQFHRHKQLIRFLKRLDRNLWGLAGLNSCPVKEANQSTLENFLERLKTIMREKYSKCSS
induction of mRNA for MAL (MAL): induced
expression of MAL protein in the raft (MAL protein [1]): increased
MAL protein expression in the raft fraction (MAL protein [2]): induction
